Reference: US20200040083A1
Values joined by “and” are separate entries in the source; they are usually repeats but may differ in a detail not shown here. Identical values can stand only once.

Target: IL-2Rβ (R&D Systems, Minneapolis, Minn.) (UniProt P14784)
Assay: Octet (BLI), AHC capture
Settings: Fc fusion

Chain of IL-2Rβ (R&D Systems, Minneapolis, Minn.) (P14784 27-240): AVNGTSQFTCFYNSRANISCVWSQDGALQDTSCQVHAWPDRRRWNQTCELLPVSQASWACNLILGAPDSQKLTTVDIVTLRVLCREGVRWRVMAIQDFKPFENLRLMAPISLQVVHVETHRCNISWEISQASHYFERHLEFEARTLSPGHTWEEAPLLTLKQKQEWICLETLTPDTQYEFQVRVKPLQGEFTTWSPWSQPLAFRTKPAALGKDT

Kd | Substance
6.76 nM and 3 nM | XENP21478 (from UniProt P0DOX5 218-449)
3.06 nM and 3 nM | XENP21479 (from UniProt P0DOX5 218-449; P40933 49-162)
